Data from patent publication US20180016344A1 (MacroGenics, published 2018).

B1: DR5 mAb 1 (antibody, V domains shown)
VH: EVKFLESGGGLVQPGGSLKLSCVASGFDFSRYWMSWVRQAPGKGLEWIGEINPDSNTINYTPSLKDKFIISRDNAKNTLYLQMTKVRSEDTALYYCTRRAYYGNPAWFAYWGQGTLVTVSS
VL: DIVLTQSPASLAVSLGQRATISCRASKSVSSSGYSYMHWYQQKPGQPPKVLIFLSSNLDSGVPARFSGSGSGTDFTLNIHPVEDGDAATYYCQHSRDLPPTFGGGTKLEIK
notes: also called anti-human DR5 monoclonal antibody DR5 mAb 1
B2: DR5 mAb 1×CD3 mAb 2 (bispecific antibody)
chain 1: DIVLTQSPASLAVSLGQRATISCRASKSVSSSGYSYMHWYQQKPGQPPKVLIFLSSNLDSGVPARFSGSGSGTDFTLNIHPVEDGDAATYYCQHSRDLPPTFGGGTKLEIKGGGSGGGGEVQLVESGGGLVQPGGSLRLSCAASGFTFSTYAMNWVRQAPGKGLEWVGRIRSKYNNYATYYADSVKGRFTISRDDSKNSLYLQMNSLKTEDTAVYYCVRHGNFGNSYVSWFAYWGQGTLVTVSSASTKGEVAACEKEVAALEKEVAALEKEVAALEK
chain 2: QAVVTQEPSLTVSPGGTVTLTCRSSTGAVTTSNYANWVQQKPGQAPRGLIGGTNKRAPWTPARFSGSLLGGKAALTITGAQAEDEADYYCALWYSNLWVFGGGTKLTVLGGGGSGGGGEVKFLESGGGLVQPGGSLKLSCVASGFDFSRYWMSWVRQAPGKGLEWIGEINPDSNTINYTPSLKDKFIISRDNAKNTLYLQMTKVRSEDTALYYCTRRAYYGNPAWFAYWGQGTLVTVSSASTKGKVAACKEKVAALKEKVAALKEKVAALKE
notes: also called bispecific DR5×CD3 diabody
B3: DR5 mAb 2×CD3 mAb 2 (bispecific antibody)
chain 1: DIVMTQSHKFMSTSVGDRVSITCKASQDVNTAVAWYQQKPGQSPKLLIYWASTRHTGVPDRFTGSGSGTDYTLTIKSVQAEDLTLYYCQQHYITPWTFGGGTKLEIKGGGSGGGGEVQLVESGGGLVQPGGSLRLSCAASGFTFSTYAMNWVRQAPGKGLEWVGRIRSKYNNYATYYADSVKGRFTISRDDSKNSLYLQMNSLKTEDTAVYYCVRHGNFGNSYVSWFAYWGQGTLVTVSSASTKGEVAACEKEVAALEKEVAALEKEVAALEK
chain 2: QAVVTQEPSLTVSPGGTVTLTCRSSTGAVTTSNYANWVQQKPGQAPRGLIGGTNKRAPWTPARFSGSLLGGKAALTITGAQAEDEADYYCALWYSNLWVFGGGTKLTVLGGGGSGGGGKVQLQQSGAELVKPGASVKLSCKASGYTFTEYILHWVKQKSGQGLEWIGWFYPGNNNIKYNEKFKDKATLTADKSSSTVYMELSRLTSEDSAVYFCARHEQGPGYFDYWGQGTTLTVSSASTKGKVAACKEKVAALKEKVAALKEKVAALKE
notes: also called DR5 mAb 2×CD3 mAb 2 diabody
B4: DR5 mAb 3×CD3 mAb 2 (bispecific antibody)
chain 1: SELTQDPAVSVALGQTVRITCSGDSLRSYYASWYQQKPGQAPVLVIYGANNRPSGIPDRFSGSSSGNTASLTITGAQAEDEADYYCNSADSSGNHVVFGGGTKLTVLGGGGSGGGGEVQLVESGGGLVQPGGSLRLSCAASGFTFSTYAMNWVRQAPGKGLEWVGRIRSKYNNYATYYADSVKGRFTISRDDSKNSLYLQMNSLKTEDTAVYYCVRHGNFGNSYVSWFAYWGQGTLVTVSSASTKGEVAACEKEVAALEKEVAALEKEVAALEK
chain 2: QAVVTQEPSLTVSPGGTVTLTCRSSTGAVTTSNYANWVQQKPGQAPRGLIGGTNKRAPWTPARFSGSLLGGKAALTITGAQAEDEADYYCALWYSNLWVFGGGTKLTVLGGGGSGGGGEVQLVQSGGGVERPGGSLRLSCAASGFTFDDYAMSWVRQAPGKGLEWVSGINWQGGSTGYADSVKGRVTISRDNAKNSLYLQMNSLRAEDTAVYYCAKILGAGRGWYFDYWGKGTTVTVSSASTKGKVAACKEKVAALKEKVAALKEKVAALKE
notes: also called diabody with the VL and VH Domains of drozitumab
B5: DR5 mAb 4×CD3 mAb 2 (bispecific antibody)
chain 1: EIVLTQSPGTLSLSPGERATLSCRASQGISRSYLAWYQQKPGQAPSLLIYGASSRATGIPDRFSGSGSGTDFTLTISRLEPEDFAVYYCQQFGSSPWTFGQGTKVEIKGGGSGGGGEVQLVESGGGLVQPGGSLRLSCAASGFTFSTYAMNWVRQAPGKGLEWVGRIRSKYNNYATYYADSVKGRFTISRDDSKNSLYLQMNSLKTEDTAVYYCVRHGNFGNSYVSWFAYWGQGTLVTVSSASTKGEVAACEKEVAALEKEVAALEKEVAALEK
chain 2: QAVVTQEPSLTVSPGGTVTLTCRSSTGAVTTSNYANWVQQKPGQAPRGLIGGTNKRAPWTPARFSGSLLGGKAALTITGAQAEDEADYYCALWYSNLWVFGGGTKLTVLGGGGSGGGGQVQLQESGPGLVKPSQTLSLTCTVSGGSISSGDYFWSWIRQLPGKGLEWIGHIHNSGTTYYNPSLKSRVTISVDTSKKQFSLRLSSVTAADTAVYYCARDRGGDYYYGMDVWGQGTTVTVSSASTKGKVAACKEKVAALKEKVAALKEKVAALKE
notes: also called diabody with the VL and VH Domains of conatumumab
B6: DR5 mAb 2 (antibody, V domains shown)
VH: KVQLQQSGAELVKPGASVKLSCKASGYTFTEYILHWVKQKSGQGLEWIGWFYPGNNNIKYNEKFKDKATLTADKSSSTVYMELSRLTSEDSAVYFCARHEQGPGYFDYWGQGTTLTVSS
VL: DIVMTQSHKFMSTSVGDRVSITCKASQDVNTAVAWYQQKPGQSPKLLIYWASTRHTGVPDRFTGSGSGTDYTLTIKSVQAEDLTLYYCQQHYITPWTFGGGTKLEIK
notes: It is a murine antibody; also called murine anti-human antibody DR5 mAb 2; DR mAb 2

Experiments:
histidine tagged TRAIL = target: T1, histidine tagged TRAIL (UniProt P50591 114-281, limits assumed); assay: ELISA, biotinylated antibody on TRAIL-His coat
T1 construct: also called TRAIL-His; TRAIL ligand; not shown: histidine tag

human DR5 = target: T2, human DR5 (human, UniProt O14763 56-440); assay: antibody titration read as MFI (log axis) against concentration in nM; the text does not describe the assay format or how DR5 was presented (Example 2)
T2 construct: also called Death Receptor 5; TRAIL-R2
T2 sequence (O14763 other isoform, or with tags, fused parts or gaps): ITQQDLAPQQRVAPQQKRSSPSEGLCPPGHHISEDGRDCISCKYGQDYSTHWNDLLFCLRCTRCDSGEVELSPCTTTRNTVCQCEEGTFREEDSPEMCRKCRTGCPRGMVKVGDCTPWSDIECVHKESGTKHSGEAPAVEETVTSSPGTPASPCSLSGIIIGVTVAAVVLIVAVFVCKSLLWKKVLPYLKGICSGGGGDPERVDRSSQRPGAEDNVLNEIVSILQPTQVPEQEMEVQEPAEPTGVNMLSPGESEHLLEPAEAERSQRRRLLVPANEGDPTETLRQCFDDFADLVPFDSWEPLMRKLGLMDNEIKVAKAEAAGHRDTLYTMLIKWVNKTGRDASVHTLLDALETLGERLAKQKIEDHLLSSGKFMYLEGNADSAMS

[1] = target: T3, His-tagged cynomolgus monkey DR5 (cynomolgus monkey); assay: Biacore (SPR); DR5×CD3 diabody with His-tagged cynomolgus monkey DR5
T3 construct: also called His-tagged DR5 (cynomolgus monkey)
Procedure: Bispecific DR5×CD3 diabodies were incubated with His-tagged DR5 and the kinetics of binding was determined via Biacore analysis.

Row | Binder | binding result (histidine tagged TRAIL) | EC50 (read off the curve) (human DR5) [nM] | Kd [1] [nM]
1 | B1 | no binding | ~1 | –
2 | B2 | – | – | 32.5
3 | B3 | – | – | 0.42
4 | B4 | – | – | 13.3
5 | B5 | – | – | 16.4
6 | B6 | no binding | – | –
